Like-named read-outs stand apart in the source and are kept apart here. Bridge positions count the residues as written; N and C are the ends. Ends that are not written are not given here.
Tests used:
[1] = biological target: T1, hu-IL-7Rγc subunit (human, UniProt P31785 23-262, limits assumed)
T1 construct: also called human Rγc subunit; common γc receptor
T1 sequence (looked up): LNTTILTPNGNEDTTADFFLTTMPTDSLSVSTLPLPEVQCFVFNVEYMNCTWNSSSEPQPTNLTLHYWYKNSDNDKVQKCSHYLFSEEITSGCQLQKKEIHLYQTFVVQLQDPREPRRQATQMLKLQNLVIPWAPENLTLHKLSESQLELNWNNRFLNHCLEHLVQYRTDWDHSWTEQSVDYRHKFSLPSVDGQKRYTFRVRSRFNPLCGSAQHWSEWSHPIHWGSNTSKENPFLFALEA

[2] = biological target: T2, hu-IL-7Rα subunit (human, UniProt P16871 21-239, limits assumed); test: phage ELISA competition assay
T2 construct: also called human interleukin-7 receptor subunit α; CD127
T2 sequence (looked up): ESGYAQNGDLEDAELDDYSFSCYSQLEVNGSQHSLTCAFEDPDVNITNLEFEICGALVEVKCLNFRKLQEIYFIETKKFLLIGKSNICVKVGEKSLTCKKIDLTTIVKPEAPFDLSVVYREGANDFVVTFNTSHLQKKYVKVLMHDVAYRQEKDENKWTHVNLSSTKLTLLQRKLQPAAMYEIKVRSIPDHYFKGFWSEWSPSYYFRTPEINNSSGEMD

[3] = biological target: T1, hu-IL-7Rγc subunit; test: not stated; binding to the specific binding site on the IL-7Rγc subunit
[4] = biological target: T3, hu-IL-7Rγc subunit (human), P31785
T3 chain: T1 sequence (looked up)

[5] = biological target: T3, hu-IL-7Rγc subunit (human), P31785; test: phage ELISA competition assay
[6] = biological target: T4, hu-IL-7Rα subunit (human), P16871; test: not stated; binding to a unique binding site on the IL-7Rα subunit
T4 chain: T2 sequence (looked up)

[7] = biological target: T3, hu-IL-7Rγc subunit (human), P31785; test: not stated; binding to the specific binding site on the IL-7Rγc subunit
[8] = biological target: T1, hu-IL-7Rγc subunit; test: phage ELISA competition assay
[9] = biological target: T2, hu-IL-7Rα subunit; test: not stated; binding to a unique binding site on the IL-7Rα subunit

Binder	IC50 [1] [µM]	IC50 [2] [µM]	other results
WSKKAEVVCEEWGGVEFCWI (not fully specified (bridges); cysteine pairing not given here, also called Rγc ligand) [SEQ ID NO 281]	< 100		
QCIHWDLESLLNCLRELKEP (also called IL-7Rα ligand) [SEQ ID NO 108]		< 10	
IPWCLLDPGGLQCVWL (also called IL-7Rα ligand) [SEQ ID NO 104]		< 10	
ILCQEFEGVELCWLEESLAE (not fully specified (bridges); cysteine pairing not given here, also called Rγc ligand) [SEQ ID NO 284]	< 100		
CPSMLQGPERTWVC (also called Rγc ligand) [SEQ ID NO 464]			IC50 [3]: < 10 µM
VVCQDWEGVELCWQ (modifications not checked) [SEQ ID NO 261]			IC50 [4]: < 100 µM; IC50 [5]: < 100 µM
RSNQTVVECQDWEGVELCWQ (not fully specified (bridges); cysteine pairing not given here, also called Rγc ligand) [SEQ ID NO 282]	< 100		
NPFRSVVPWCALDPGSLQCAWL (also called IL-7Rα ligand) [SEQ ID NO 106]		< 10	
RHFDDIIPWCTLDPGSLQCAYL (also called IL-7Rα ligand) [SEQ ID NO 110]		< 10	
KLTVECQDWDGVELCWVGVE (not fully specified (bridges); cysteine pairing not given here, also called Rγc ligand) [SEQ ID NO 293]	< 100		
YMACSSGLSLCRLS (modifications not checked) [SEQ ID NO 457]			IC50 [6]: < 10 µM
VVCQEWEGVELCWYAGECMQ (not fully specified (bridges); cysteine pairing not given here, also called Rγc ligand) [SEQ ID NO 283]	< 100		
KVCEMWGGVLLCWN (modifications not checked) [SEQ ID NO 461]			IC50 [7]: < 10 µM
KAGSWFIPWCTLDPGSLQCAFL (also called IL-7Rα ligand) [SEQ ID NO 105]		< 10	
VPWCMLDPGSMQCAWL (also called IL-7Rα ligand) [SEQ ID NO 113]		< 10	
HCLHWNIETLMSCVYGNFEE (also called IL-7Rα ligand) [SEQ ID NO 100]		< 10	
GGVVCQDWEGVELCWQGG (disulfide 5-14 (inferred), also called Rγc ligand) [SEQ ID NO 327]			IC50 [8]: < 100 µM
QCVHWDLDTLFGCIREQLEL (also called IL-7Rα ligand) [SEQ ID NO 109]		< 10	
KKIVVCQDWGGVELCWTEDD (not fully specified (bridges); cysteine pairing not given here, also called Rγc ligand) [SEQ ID NO 317]	< 100		
HCKHWDLESLLLCV (also called IL-7Rα ligand) [SEQ ID NO 101]		< 10	
VVCQEWEGVELCWC (not fully specified (bridges); cysteine pairing not given here, also called Rγc ligand) [SEQ ID NO 270]	< 100		
EGSTTTIECEEWAGVELCWL (not fully specified (bridges); cysteine pairing not given here, also called Rγc ligand) [SEQ ID NO 273]	< 100		
KTTVACQDWGGVELCWVERV (not fully specified (bridges); cysteine pairing not given here, also called Rγc ligand) [SEQ ID NO 298]	< 100		
HLGVPWCTLDPGSIQCAWLAKH (also called IL-7Rα ligand) [SEQ ID NO 102]		< 10	

Binder	IC50 [1] [µM]	IC50 [2] [µM]	other results
RSDDEVVVCQEWEGVELCWQ (not fully specified (bridges); cysteine pairing not given here, also called Rγc ligand) [SEQ ID NO 275]	< 100		
QCIHWDIETLLSCV (also called IL-7Rα ligand) [SEQ ID NO 107]		< 10	
KPVVVCEEWQGVELCWLEIQ (not fully specified (bridges); cysteine pairing not given here, also called Rγc ligand) [SEQ ID NO 301]	< 100		
RLLNSVVECLDWEGVELCWQ (not fully specified (bridges); cysteine pairing not given here, also called Rγc ligand) [SEQ ID NO 268]	< 100		
GGVPWCTLDPGSLQCAWF (not fully specified (bridges); cysteine pairing not given here, also called IL-7Rα ligand) [SEQ ID NO 459]			IC50 [9]: < 10 µM
QCVHWDLDTLFGCIREQLEL (also called IL-7Rα ligand) [SEQ ID NO 458]			IC50 [9]: < 10 µM
VVCQEWEGVELCWVEPPLLP (not fully specified (bridges); cysteine pairing not given here, also called Rγc ligand) [SEQ ID NO 295]	< 100		
VTCQEYEGVELCWTVGCAYS (not fully specified (bridges); cysteine pairing not given here, also called Rγc ligand) [SEQ ID NO 307]	< 100		
GWGIPWCTLDPGSLQCAWLGKH (also called IL-7Rα ligand) [SEQ ID NO 116]		< 10	
SAKVLKQCLHWDLESLLSCL (also called IL-7Rα ligand) [SEQ ID NO 111]		< 10	
MCWLEWGEWVGSCL (also called Rγc ligand) [SEQ ID NO 463]			IC50 [3]: < 10 µM
IECEEWAGVELCWL (not fully specified (bridges); cysteine pairing not given here, also called Rγc ligand) [SEQ ID NO 276]	< 100		
WVTIPWCILDPGSLQCEWQTKV (also called IL-7Rα ligand) [SEQ ID NO 115]		< 10	
RTCTEWENVVLCWV (also called Rγc ligand) [SEQ ID NO 462]			IC50 [3]: < 10 µM
FAHHGVVECQEWYGVELCWQ (not fully specified (bridges); cysteine pairing not given here, also called Rγc ligand) [SEQ ID NO 279]	< 100		
IRSCLWQPGALHCTWWAEEEPV (also called IL-7Rα ligand) [SEQ ID NO 103]		< 10	
VHRIPWCTLDPGGLQCAWLRQM (also called IL-7Rα ligand) [SEQ ID NO 114]		< 10	
QCIHWDIETLLSCV (also called IL-7Rα ligand) [SEQ ID NO 455]			IC50 [9]: < 10 µM
VYCAEIGEYRVCRQ (modifications not checked) [SEQ ID NO 456]			IC50 [6]: < 10 µM
GGVVCQDWEGVELCWQ (modifications not checked) [SEQ ID NO 326]			IC50 [5]: < 100 µM
VVCEVFQGVELCWCENEEFT (not fully specified (bridges); cysteine pairing not given here, also called Rγc ligand) [SEQ ID NO 302]	< 100		
VVCQDWEGVELCWQGG (modifications not checked) [SEQ ID NO 325]			IC50 [5]: < 100 µM
YRSGHGIPWCMLDPGGLQCSWL (also called IL-7Rα ligand) [SEQ ID NO 117]		< 10	

Reference: US20240100159A1, “USE OF IL-7R-ALPHA-GAMMA AGONIST PEPTIDES IN CELL MANUFACTURING” (MEDIKINE, INC., priority 2022, published 2024)
